This is an account of results in the supplement of paper PMC6757056.

The chains are these.
B1: library; a variant is named by its letters at N, in order (parent)
chain: GCUGUCACCGGUGCUUGGUACGUUAUAUUCAGCCGGUCUGAUGAGUCUNNNNNNAGACGAAACAGC

The variants in series [1] derive from B1. Description: normalized RNA/DNA level without ligand (relative to sTRSVctl = 100) (log10 (% of sTRSVctl)); HEK293T overexpressing SLC46A1; higher = less ribozyme self-cleavage, higher mRNA level. Particulars: without (6R,S)-folinic acid; ligand present: no. The essentials: (§1)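 Total RNA, extracted with EDTA 72 h after HEK293T cells were transfected with 4 µg per 6-well well of reporter-linked ribozyme switch library plasmids, was reverse-transcribed, amplified, barcoded and sequenced. Ligand, if used, was added 1 h before transfection. RNA level was derived from RNA reads divided by DNA reads and normalized to a spiked-in non-cleaving sequence or to the top sequences. This was multiplied by 100 and log10-transformed, with the top set of 25 sequences and a ≥100 DNA read minimum.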

The variants in series [2] derive from B1. The series can be described thus: normalized RNA/DNA level with ligand (relative to sTRSVctl = 100) (log10 (% of sTRSVctl)); HEK293T overexpressing SLC46A1; ligand concentration (+) RNA-Seq: 6 mM; higher = less ribozyme self-cleavage, higher mRNA level. Particulars: with (6R,S)-folinic acid; ligand present: yes. In outline:
as §1

± gives the standard deviation of the averaged measurements.

For GCUGUCACCGGUGCUUGGUACGUUAUAUUCAGCCGGUCUGAUGAGUCUGCUCGAAGACGAAACAGC [GCUCGA], the “normalized RNA/DNA level without ligand (log10)” value in series [1] was 2.039 ± 0.0067. The “normalized RNA/DNA level with ligand (log10)” value in series [2] came out at 2.02 ± 0.065.

On to GCUGUCACCGGUGCUUGGUACGUUAUAUUCAGCCGGUCUGAUGAGUCUGCUCGCAGACGAAACAGC [GCUCGC], for which the “normalized RNA/DNA level without ligand (log10)” value in series [1] was 2.02 ± 0.027. The “normalized RNA/DNA level with ligand (log10)” value in series [2] turned out to be 2.0264 ± 0.00071.

With GCUGUCACCGGUGCUUGGUACGUUAUAUUCAGCCGGUCUGAUGAGUCUUCUCCUAGACGAAACAGC [UCUCCU], the “normalized RNA/DNA level without ligand (log10)” value in series [1] came out at 2.01 ± 0.028. In series [2], the “normalized RNA/DNA level with ligand (log10)” value worked out at 2.02 ± 0.032.

Consider GCUGUCACCGGUGCUUGGUACGUUAUAUUCAGCCGGUCUGAUGAGUCUUCUCCGAGACGAAACAGC [UCUCCG], for which the “normalized RNA/DNA level without ligand (log10)” value in series [1] is 1.96 ± 0.065. For the same variant, in series [2], the “normalized RNA/DNA level with ligand (log10)” value came to 2.022 ± 0.013.

With GCUGUCACCGGUGCUUGGUACGUUAUAUUCAGCCGGUCUGAUGAGUCUUCUCCAAGACGAAACAGC [UCUCCA], the “normalized RNA/DNA level without ligand (log10)” value in series [1] came to 2.017 ± 0.0042. Besides, the “normalized RNA/DNA level with ligand (log10)” value in series [2] came out at 2.023 ± 0.0081.

For GCUGUCACCGGUGCUUGGUACGUUAUAUUCAGCCGGUCUGAUGAGUCUUCUCCCAGACGAAACAGC [UCUCCC], the “normalized RNA/DNA level without ligand (log10)” value in series [1] was 2.07 ± 0.021. For the same variant, the “normalized RNA/DNA level with ligand (log10)” value in series [2] came out at 2.06 ± 0.05.

With GCUGUCACCGGUGCUUGGUACGUUAUAUUCAGCCGGUCUGAUGAGUCUACUCAGAGACGAAACAGC [ACUCAG], the “normalized RNA/DNA level without ligand (log10)” value in series [1] was found to be 1.967 ± 0.0061. Besides, in series [2], the “normalized RNA/DNA level with ligand (log10)” value stood at 1.98 ± 0.036.

As for GCUGUCACCGGUGCUUGGUACGUUAUAUUCAGCCGGUCUGAUGAGUCUACUCACAGACGAAACAGC [ACUCAC], in series [1], the “normalized RNA/DNA level without ligand (log10)” value worked out at 2.058 ± 0.007. Further, the “normalized RNA/DNA level with ligand (log10)” value in series [2] was found to be 2.045 ± 0.0072.

As to GCUGUCACCGGUGCUUGGUACGUUAUAUUCAGCCGGUCUGAUGAGUCUUCUAUUAGACGAAACAGC [UCUAUU], the “normalized RNA/DNA level without ligand (log10)” value in series [1] is 2.048 ± 0.0024. Further, in series [2], the “normalized RNA/DNA level with ligand (log10)” value is 2.046 ± 0.0024.

As for GCUGUCACCGGUGCUUGGUACGUUAUAUUCAGCCGGUCUGAUGAGUCUUCUAUGAGACGAAACAGC [UCUAUG], in series [1], the “normalized RNA/DNA level without ligand (log10)” value was 1.832 ± 0.017. Moreover, the “normalized RNA/DNA level with ligand (log10)” value in series [2] was determined as 2.022 ± 0.0024.

GCUGUCACCGGUGCUUGGUACGUUAUAUUCAGCCGGUCUGAUGAGUCUCCUCACAGACGAAACAGC [CCUCAC]: in series [1], the “normalized RNA/DNA level without ligand (log10)” value turned out to be 2.0541 ± 0.0006. The “normalized RNA/DNA level with ligand (log10)” value in series [2] was determined as 2.027 ± 0.013.

For the variant GCUGUCACCGGUGCUUGGUACGUUAUAUUCAGCCGGUCUGAUGAGUCUCCUCAGAGACGAAACAGC [CCUCAG], the “normalized RNA/DNA level without ligand (log10)” value in series [1] stood at 1.94 ± 0.024. Besides, in series [2], the “normalized RNA/DNA level with ligand (log10)” value is 1.96 ± 0.0042.

Turning to GCUGUCACCGGUGCUUGGUACGUUAUAUUCAGCCGGUCUGAUGAGUCUCCUCAUAGACGAAACAGC [CCUCAU], the “normalized RNA/DNA level without ligand (log10)” value in series [1] was 2.03 ± 0.025. In series [2], the “normalized RNA/DNA level with ligand (log10)” value was found to be 2 ± 0.054.

In the case of GCUGUCACCGGUGCUUGGUACGUUAUAUUCAGCCGGUCUGAUGAGUCUCCUCAAAGACGAAACAGC [CCUCAA], in series [1], the “normalized RNA/DNA level without ligand (log10)” value amounted to 2.0335 ± 0.00095. Moreover, in series [2], the “normalized RNA/DNA level with ligand (log10)” value came to 2 ± 0.059.

For GCUGUCACCGGUGCUUGGUACGUUAUAUUCAGCCGGUCUGAUGAGUCUCCUCGCAGACGAAACAGC [CCUCGC], the “normalized RNA/DNA level without ligand (log10)” value in series [1] is 2.08 ± 0.03. The “normalized RNA/DNA level with ligand (log10)” value in series [2] was found to be 2.033 ± 0.017.

Regarding GCUGUCACCGGUGCUUGGUACGUUAUAUUCAGCCGGUCUGAUGAGUCUCCUCGGAGACGAAACAGC [CCUCGG], the “normalized RNA/DNA level without ligand (log10)” value in series [1] came out at 2.078 ± 0.0042. For the same variant, the “normalized RNA/DNA level with ligand (log10)” value in series [2] is 1.99 ± 0.012.

GCUGUCACCGGUGCUUGGUACGUUAUAUUCAGCCGGUCUGAUGAGUCUCCUCGAAGACGAAACAGC [CCUCGA]: in series [1], the “normalized RNA/DNA level without ligand (log10)” value amounted to 1.998 ± 0.011. Further, the “normalized RNA/DNA level with ligand (log10)” value in series [2] stood at 2.02 ± 0.029.

GCUGUCACCGGUGCUUGGUACGUUAUAUUCAGCCGGUCUGAUGAGUCUCCUCCGAGACGAAACAGC [CCUCCG]: the “normalized RNA/DNA level without ligand (log10)” value in series [1] was 2.07 ± 0.029. In addition, the “normalized RNA/DNA level with ligand (log10)” value in series [2] turned out to be 2.049 ± 0.011.

On to GCUGUCACCGGUGCUUGGUACGUUAUAUUCAGCCGGUCUGAUGAGUCUCCUCCCAGACGAAACAGC [CCUCCC], for which the “normalized RNA/DNA level without ligand (log10)” value in series [1] was determined as 2.095 ± 0.016. In addition, the “normalized RNA/DNA level with ligand (log10)” value in series [2] amounted to 2.0404 ± 0.0018.

Take GCUGUCACCGGUGCUUGGUACGUUAUAUUCAGCCGGUCUGAUGAGUCUCCUCCUAGACGAAACAGC [CCUCCU]: in series [1], the “normalized RNA/DNA level without ligand (log10)” value was determined as 2.06 ± 0.036. Moreover, the “normalized RNA/DNA level with ligand (log10)” value in series [2] amounted to 2.037 ± 0.0023.
